The record followed here is US20210269780A1.

The experiment concerns the target G3BP (human) (UniProt Q13283).

“G3BPdi-mCherry-sspB (from UniProt Q13283)”: the percentage of cells with PABPC1-positive stress granules after sodium arsenite was 46 % of cells.

For the substance mCherry-sspB, the percentage of cells with PABPC1-positive stress granules after sodium arsenite was 85 % of cells.
